Laboratory results from US20130137631A1.

T1: human GIP receptor (human), P48546
T1 chain: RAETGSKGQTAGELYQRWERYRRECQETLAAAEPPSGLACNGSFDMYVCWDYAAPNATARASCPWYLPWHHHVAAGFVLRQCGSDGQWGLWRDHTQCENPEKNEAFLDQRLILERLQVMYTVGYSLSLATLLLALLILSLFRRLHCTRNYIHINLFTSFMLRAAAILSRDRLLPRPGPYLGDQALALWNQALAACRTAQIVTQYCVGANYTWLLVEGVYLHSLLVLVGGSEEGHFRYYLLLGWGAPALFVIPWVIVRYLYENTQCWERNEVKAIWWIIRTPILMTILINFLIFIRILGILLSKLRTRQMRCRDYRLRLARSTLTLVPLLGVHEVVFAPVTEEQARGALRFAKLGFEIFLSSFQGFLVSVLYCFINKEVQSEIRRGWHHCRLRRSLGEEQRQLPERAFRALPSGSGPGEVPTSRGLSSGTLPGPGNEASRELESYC


Target: T1, human GIP receptor (human), P48546
Experiment: 125I-GIP displacement, HEK-GIPR membranes

Binder | % Inh 10 nM [%] | IC50 [nM]
HAEGTFISDYSIAMDKIHQQDFVNWLLAQKPKKIRYS (modifications not checked) [0601GIP4838] | 34.3 | 
YAEGTFISDYSIAMDKIHQQDFVNWLLAQKPNKIRYS (modifications not checked) [0601GIP4851] | 87 | 
YAEGTFISDYSIAMDKIHQQDFVNWLLAQKPKQIRYS (modifications not checked) [0601GIP4854] | 93.5 | 
YAEGTFISDYSIAMDKIHQQDFVNWLLAQKPKNIRYS (modifications not checked) [0601GIP4852] | 90 | 
YAEGTFISDYSIAMDKIHQQDFVNWLLAQKPQKIRYS (modifications not checked) [0601GIP4853] | 91 | 
YAEGTFISDYSIAMDKIHQQDFVNQLLAQKPKKIRYS (modifications not checked) [0601GIP4845] | 69.5 | 

Other lines, results leading:

% Inh 10 nM [%] | IC50 [nM] | Binder
101 |  | YAEGTFISDYSIALDKIAQQEFVNWLLAQKPSSGAPPKSK (modifications not checked) [0601GIP5097]
97 |  | YAEGTFISDYSIALEKIRQQEFVNWLLAQKPSSGAPPNSK (modifications not checked) [0601GIP5098]
83.7 |  | YAEGTFISDYSIAMDKIHQQDFVNWLLAQKPKKARYS (modifications not checked) [0601GIP4856]
78.8 | 0.72 | YAEGTFISDYSIAMDKIHQQDFVNWLLAQKPQQIRYS (modifications not checked) [0601GIP4855]
96.3 |  | YAEGTFISDYSIAMDKIHQQDFVNWLLAQKPKKQRYS (modifications not checked) [0601GIP4914]
85.6 |  | YAEGTFISDYSIAMDKIHQQDFVQWLLAQKPKKIRYS (modifications not checked) [0601GIP4865 (row r89, Gln24)]
92.1 |  | YAEGTFISDYSIAMDKIHQQDFVNWLLAQKPKKIQYS (modifications not checked) [0601GIP4913]
